Results taken from US20150344570A1 (published 2015).

T1: FcγRIIb extracellular domain with C-terminal His tag (human, UniProt P31994 43-217)
T1 construct: extracellular domain; Expressed in FreeStyle293 cells; analyte in the SPR assay; also called FcgRIIb; 2b
T1 sequence (looked up): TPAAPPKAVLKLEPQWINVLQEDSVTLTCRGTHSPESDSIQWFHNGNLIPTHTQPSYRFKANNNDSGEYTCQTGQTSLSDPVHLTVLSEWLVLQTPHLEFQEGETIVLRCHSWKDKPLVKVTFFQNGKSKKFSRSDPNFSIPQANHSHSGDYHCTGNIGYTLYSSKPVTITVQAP

B1: GpH7-A5/GpH7-B3 variant P271_07I/GpL16-k0 (He Ab) (antibody, human IgG1, kappa)
heavy 1: not shown
heavy 2: not shown
light: DIVMTQSPLSLPVTPGEPASISCQASESLVHSNRNTYLHWYLQKPGQSPQLLIYKVSNRFSGVPDRFSGSGSGTDFTLKISRVEAEDVGVYYCSQNTHVPPTFGQGTKVEIERTVAAPSVFIFPPSDEQLKSGTASVVCLLNNFYPREAKVQWKVDNALQSGNSQESVTEQDSKDSTYSLSSTLTLSKADYEKHKVYACEVTHQGLSSPVTKSFNRGEC
notes: He Ab: mutation in one H chain only
B2: GpH7-A5/GpH7-B3 variant P271_11K/GpL16-k0 (He Ab) (antibody, human IgG1, kappa)
heavy 1: not shown
heavy 2: not shown
light: B1 light
notes: as for B1
B3: GpH7-A5/GpH7-B3 variant P271_12R/GpL16-k0 (He Ab) (antibody, human IgG1, kappa)
heavy 1: not shown
heavy 2: not shown
light: B1 light
notes: as for B1
B4: GpH7-A5/GpH7-B3 variant P271_13S/GpL16-k0 (He Ab) (antibody, human IgG1, kappa)
heavy 1: not shown
heavy 2: not shown
light: B1 light
notes: as for B1
B5: GpH7-A5/GpH7-B3 variant P271_14T/GpL16-k0 (He Ab) (antibody, human IgG1, kappa)
heavy 1: not shown
heavy 2: not shown
light: B1 light
notes: as for B1
B6: GpH7-A5/GpH7-B3 variant P271_15Y/GpL16-k0 (He Ab) (antibody, human IgG1, kappa)
heavy 1: not shown
heavy 2: not shown
light: B1 light
notes: as for B1
B7: GpH7-A5/GpH7-B3 variant P271_16H/GpL16-k0 (He Ab) (antibody, human IgG1, kappa)
heavy 1: not shown
heavy 2: not shown
light: B1 light
notes: as for B1
B8: GpH7-A5/GpH7-B3 variant P271_18N/GpL16-k0 (He Ab) (antibody, human IgG1, kappa)
heavy 1: not shown
heavy 2: not shown
light: B1 light
notes: as for B1
B9: GpH7-A5/GpH7-B3 variant P271_19Q/GpL16-k0 (He Ab) (antibody, human IgG1, kappa)
heavy 1: not shown
heavy 2: not shown
light: B1 light
notes: as for B1
B10: GpH7-A5/GpH7-B3 variant P271_20W/GpL16-k0 (He Ab) (antibody, human IgG1, kappa)
heavy 1: not shown
heavy 2: not shown
light: B1 light
notes: as for B1
B11: GpH7-A5/GpH7-B3 variant Q295_02A/GpL16-k0 (He Ab) (antibody, human IgG1, kappa)
heavy 1: not shown
heavy 2: not shown
light: B1 light
notes: as for B1
B12: GpH7-A5/GpH7-B3 variant Q295_03V/GpL16-k0 (He Ab) (antibody, human IgG1, kappa)
heavy 1: not shown
heavy 2: not shown
light: B1 light
notes: as for B1
B13: GpH7-A5/GpH7-B3 variant Q295_04F/GpL16-k0 (He Ab) (antibody, human IgG1, kappa)
heavy 1: not shown
heavy 2: not shown
light: B1 light
notes: as for B1
B14: GpH7-A5/GpH7-B3 variant Q295_05P/GpL16-k0 (He Ab) (antibody, human IgG1, kappa)
heavy 1: not shown
heavy 2: not shown
light: B1 light
notes: as for B1
B15: GpH7-A5/GpH7-B3 variant Q295_06M/GpL16-k0 (He Ab) (antibody, human IgG1, kappa)
heavy 1: not shown
heavy 2: not shown
light: B1 light
notes: as for B1
B16: GpH7-A5/GpH7-B3 variant Q295_07I/GpL16-k0 (He Ab) (antibody, human IgG1, kappa)
heavy 1: not shown
heavy 2: not shown
light: B1 light
notes: as for B1
B17: GpH7-A5/GpH7-B3 variant S239_14T/GpL16-k0 (He Ab) (antibody, human IgG1, kappa)
heavy 1: not shown
heavy 2: not shown
light: B1 light
notes: as for B1
B18: GpH7-A5/GpH7-B3 variant S239_19Q/GpL16-k0 (He Ab) (antibody, human IgG1, kappa)
heavy 1: not shown
heavy 2: not shown
light: B1 light
notes: as for B1
B19: GpH7-A5/GpH7-B3 variant S267_16H/GpL16-k0 (He Ab) (antibody, human IgG1, kappa)
heavy 1: not shown
heavy 2: not shown
light: B1 light
notes: as for B1
B20: GpH7-A5/GpH7-B3 variant S267_18N/GpL16-k0 (He Ab) (antibody, human IgG1, kappa)
heavy 1: not shown
heavy 2: not shown
light: B1 light
notes: as for B1
B21: GpH7-A5/GpH7-B3 variant V266_19Q/GpL16-k0 (He Ab) (antibody, human IgG1, kappa)
heavy 1: not shown
heavy 2: not shown
light: B1 light
notes: as for B1

Each binder was assayed against T2, FcγRIa extracellular domain with C-terminal His tag (human, UniProt P12314 16-292) (assay: SPR (Biacore), relative binding, HeCon Ab = 100).
T2 construct: extracellular domain; Expressed in FreeStyle293 cells; analyte in the SPR assay; also called FcgRI; 1a
T2 sequence (P12314 16-292): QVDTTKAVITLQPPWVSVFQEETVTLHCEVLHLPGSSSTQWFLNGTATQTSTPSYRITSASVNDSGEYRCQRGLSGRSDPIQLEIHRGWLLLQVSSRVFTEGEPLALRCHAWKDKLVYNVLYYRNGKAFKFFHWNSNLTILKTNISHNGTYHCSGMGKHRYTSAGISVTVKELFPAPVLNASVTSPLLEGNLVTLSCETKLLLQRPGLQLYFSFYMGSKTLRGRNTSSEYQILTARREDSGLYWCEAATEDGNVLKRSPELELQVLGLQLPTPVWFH
With B1 the He/Con_1a was 102 % of HeCon Ab (=100). With B2 the He/Con_1a was 103 % of HeCon Ab (=100). For B3, the He/Con_1a was 102 % of HeCon Ab (=100). B4 was tested, and the He/Con_1a was 102 % of HeCon Ab (=100). For B5, the He/Con_1a was 102 % of HeCon Ab (=100). For B6, the He/Con_1a was 103 % of HeCon Ab (=100). In the case of B7, the He/Con_1a is reported as 102 % of HeCon Ab (=100). In the case of B8, the He/Con_1a is reported as 103 % of HeCon Ab (=100). In the case of B9, the He/Con_1a is reported as 103 % of HeCon Ab (=100). For B10, the He/Con_1a was 103 % of HeCon Ab (=100). In the case of B11, the He/Con_1a is reported as 104 % of HeCon Ab (=100). In the case of B12, the He/Con_1a is reported as 104 % of HeCon Ab (=100). In the case of B13, the He/Con_1a is reported as 102 % of HeCon Ab (=100). With B14 the He/Con_1a was 103 % of HeCon Ab (=100). B15 was tested, and the He/Con_1a was 104 % of HeCon Ab (=100). With B16 the He/Con_1a was 103 % of HeCon Ab (=100). In the case of B17, the He/Con_1a is reported as 101 % of HeCon Ab (=100). B18 was tested, and the He/Con_1a was 101 % of HeCon Ab (=100). In the case of B19, the He/Con_1a is reported as 100 % of HeCon Ab (=100). B20 was tested, and the He/Con_1a was 102 % of HeCon Ab (=100). With B21 the He/Con_1a was 100 % of HeCon Ab (=100).

These binders were tested against T1, FcγRIIb extracellular domain with … (assay: SPR (Biacore), relative binding, HeCon Ab = 100).
For B1, the He/Con_2b was 76.8 % of HeCon Ab (=100). With B2 the He/Con_2b was 90.2 % of HeCon Ab (=100). With B3 the He/Con_2b was 86.5 % of HeCon Ab (=100). In the case of B4, the He/Con_2b is reported as 87.6 % of HeCon Ab (=100). B5 was tested, and the He/Con_2b was 95.4 % of HeCon Ab (=100). In the case of B6, the He/Con_2b is reported as 52.3 % of HeCon Ab (=100). With B7 the He/Con_2b was 67.9 % of HeCon Ab (=100). In the case of B8, the He/Con_2b is reported as 93.3 % of HeCon Ab (=100). B9 was tested, and the He/Con_2b was 88.6 % of HeCon Ab (=100). B10 was tested, and the He/Con_2b was 58.1 % of HeCon Ab (=100). In the case of B11, the He/Con_2b is reported as 79.7 % of HeCon Ab (=100). B12 was tested, and the He/Con_2b was 75.7 % of HeCon Ab (=100). In the case of B13, the He/Con_2b is reported as 64.7 % of HeCon Ab (=100). B14 was tested, and the He/Con_2b was 67.5 % of HeCon Ab (=100). For B15, the He/Con_2b was 90.4 % of HeCon Ab (=100). In the case of B16, the He/Con_2b is reported as 84.3 % of HeCon Ab (=100). B17 was tested, and the He/Con_2b was 97.3 % of HeCon Ab (=100). In the case of B18, the He/Con_2b is reported as 86.1 % of HeCon Ab (=100). B19 was tested, and the He/Con_2b was 65.9 % of HeCon Ab (=100). With B20 the He/Con_2b was 47.7 % of HeCon Ab (=100). For B21, the He/Con_2b was 89.2 % of HeCon Ab (=100).
